Four molecules from US20150274831A1 (Hoffmann-La Roche, published 2015) can be followed below.

The labels stand for the following.
B1: Mab 2F11 (antibody, V domains shown)
VH: QVQLKESGPGLVAPSQSLSITCTVSGFSLTTYDISWIRQSPGKGLEWLGVIWTDGGTNYNSPFMSRLSIRKDNSKSQVFLKMNRLQTDDTAIYYCVRDQRLYFDVWGAGTTVTVSS
VL: NIVMTQSPKSMSMSVGERVTLNCKASEDVNTYVSWYQQQPEQSPKLLIYGASNRYTGVPDRFTGGGSTTDFTLTISSVQAEDLADYFCGQSFSYPTFGTGTKLEIK
B2: Mab 1G10 (antibody, V domains shown)
VH: RVQLKESGPGLVAPSQSLSITCTVSGFSLTSYDISWIRQSPGKGLEWLGVIWSGGGTNYNSPFMSRLRISKDDSRSQVFLKVNRLQTDDTAIYYCVRDLRLYFDVWGAGTTVTVSS
VL: KIVMTQSPKSMSVSVGERVSLSCKASEDVGTYVSWYQQKPEQSPKLLIYGSSNRYTGVPDRFTGSGSATDFTLTISSVQAEDLADYSCGQSFTYPTFGTGTKLEIK
B3: Mab 2E10 (antibody, V domains shown)
VH: QVQLKESGPGLVAPSKSLSITCTVSGSSLDSFDISWIRQSPGKGLEWLGVIWTGGGTNYNSGFMSRLRITKDNSKSQVLLKMNSLQSDDTAIYYCVRDPRLYFDVWGAGTTVTVSS
VL: NIVMTQSPKSMSMSVGERVTLSCKASEDVVTYVSWYQQKPDQSPKLLIYGASNRYTGVPDRFTGSGSATDFTLTISSVQAEDLADYYCGQTFSYPTFGTGTKLEIK
B4: Mab 2H7 (antibody, V domains shown)
VH: QVQLKESGPGLVAPSKSLSITCTVSGSSLDSFDISWIRQPPGKGLEWLGVIWTGGGTNYNSGFMSRLRISKDNSKSQVFLKMSSLQSDDTAIYYCVRDPRLYFDVWGAGTTVTVSS
VL: NIVMTQSPKSMSMSVGERVTLSCKASEDVVTYVSWYQQKPEQSPKLLIYGASNRYTGVPDRFTGSGSATDFTLTISSIQAEDLADYYCGQTFSYPTFGTGTKLEIK

The assay has as its target CSF-1R on cynomolgous monocytes (native receptor of CD14-enriched peripheral blood monocytes) (cynomolgous). Kind of assay: cell-based or functional assay.
In the case of B1, the “% inhibition (of survival) = (100% - % survival) (CellTiterGlo; cynomolgous monocytes with 150 ng/ml huCSF-1; 5 µg/ml antibody)” value amounted to 96% and the “% survival (CellTiterGlo; cynomolgous monocytes with 150 ng/ml huCSF-1; 5 µg/ml antibody)” value was 4%.
With B2, the “% inhibition (of survival) = (100% - % survival) (CellTiterGlo; cynomolgous monocytes with 150 ng/ml huCSF-1; 5 µg/ml antibody)” value is 98% and the “% survival (CellTiterGlo; cynomolgous monocytes with 150 ng/ml huCSF-1; 5 µg/ml antibody)” value amounted to 2%.
The like results for B3 were, in that order, 83% and 17%.
Taken in the same sequence, the figures for B4 were 92% and 8%.
